{"source": "patent US20220380409A1", "molecular_target": "PfLDH protein (UniProt Q27743)", "assay": "-", "data": [{"substance": "primary ligand hevwh", "values": [{"measurement": "Kd", "value": 5, "unit": "µM"}]}]}
